Common to all, as to assay type: cell-based, E. coli
Series [1] deals with 2HIB production from acetone and formate. The series is described as follows: HACS screening with acetone and formate (2HIB production). Particulars: 100 mM acetone and 20 mM formate, CaAbfT. On the procedure: The HACS variants are tested using the high throughput screening platform as described in EXAMPLE 3 pathway 2 by co-feeding 100 mM acetone and 20 mM formate with formate activation enzyme CaAbfT (FIG. 37A).

Series [2] deals with 2,4-dihydroxybutyric acid production from 3-hydroxypropionaldehyde and formate. The series is described as follows: HACS screening with 3-hydroxypropionaldehyde and formate (DHB productivity). To be noted: 5 mM 3HP and 20 mM formate, first round. An excerpt:
We used 2-hydroxyacid productivity per cell density (μM/OD600) as indicator of HACS activity. 2-Hydroxyacids can be produced co-feeding various aldehydes and formic acid (formate) as carbon source in the presence of active HACS variant and acyl-CoA transferase from Clostridium aminobutyricum (CaAbfT). CaAbfT is shown to be capable of catalyzing reaction from formate to formyl-CoA (Nattermann, M., et al. ACS Catal 11 (9): 5396-5404 (2021)). HACS condenses aldehyde and formyl-CoA to form 2-hydroxyacyl-CoA, which can then be hydrolyzed to 2-hydroxyacid via native thioesterase activities (FIG. 31A).
For the in vivo prototyping, we engineered vectors to independently control expression of HACS variants and CaAbfT, with HACS under control of the IPTG-inducible T7 promoter in pCDFDuet-1 and CaAbfT under control of a cumate-inducible T5 promoter in pETDuet-1 (FIG. 31B) and transformed them into the engineered strain of E. coli described in EXAMPLE 3.
The HACS variants were screened for 2-hydroxyacid production using the high throughput screening platform as described in EXAMPLE 3 by co-feeding 5 mM aldehyde and 20 mM formate. The cells were harvested after 1 hour by centrifugation and the supernatant analyzed by HPLC (as described in EXAMPLE 2) or SoGO method.
We used 2,4-dihydroxybutyric acid (DHB) productivity per cell density (uM DHB/OD600) as indicator of HACS activity. […]

In series [3] the test system is glycolate production from formaldehyde. The series is described as follows: Resting-cell bioconversion pathway 1 (HACS with LmACR-EcAldA), formaldehyde as sole carbon source. Particulars: for glycolate productivity (glycolyl-CoA synthase activity) compared with RuHACL: 5 mM formaldehyde as sole carbon source. An excerpt:
We used glycolic acid (glycolate) productivity per cell density (uM glycolate/OD600) as indicator of HACS activity. Two different enzymatic routes for glycolate synthesis are explored. The first pathway (pathway 1) is similar to the pathway used for initial screening in Example 2 with addition of an extra gene, aldehyde dehydrogenase aldA from Escherichia coli (EcAldA) overexpressed to drive flux from glycolaldehyde to glycolate (FIG. 21A). In addition, HACS and LmACR-AldA are controlled under independent inducible promoters to investigate the impact of varying relative gene expressions (FIG. 21B). The second pathway (pathway 2) involves independent fluxes of formaldehyde and formyl-CoA allowing assessment of the enzyme activity with response to changing formaldehyde concentration only, while maintaining constant formyl-CoA flux. Formyl-CoA is generated by formic acid (formate) catalyzed by the acyl-CoA transferase from Clostridium aminobutyricum (CaAbfT) (FIG. 22A).
For the in vivo prototyping, we engineered vectors to independently control expression of HACS variants and the LmACR-EcAldA (pathway 1, FIG. 21A) or CaAbfT (pathway 2, FIG. 22A), with HACS under control of the IPTG-inducible T7 promoter in pCDFDuet-1 and LmACR-EcAldA or CaAbfT under control of a cumate-inducible T5 promoter in pETDuet-1 (FIG. 21B). As a host for these vectors, we used an engineered strain of E. coli based on MG1655(DE3) with knockouts for formaldehyde (ΔfrmA) and formate (ΔfdhF ΔfdnG ΔfdoG) oxidation as well as for glycolate utilization (ΔglcD)), which we expected could compete or interfere with the analysis of our pathway. […]
Cells from the above pre-cultures were then centrifuged (4000 rpm, 22° C.), washed with the above minimal media without any carbon source, and resuspended with 1 mL of above minimal media containing indicated amounts of carbon source. […] The cells were harvested after 3 hours for LmACR-EcAldA co-expression and 1 hour for CaAbfT co-expression by centrifugation and the supernatant analyzed by HPLC or GC-MS as described in EXAMPLE 2. […]

From patent publication US20260078416A1, “ORTHOGONAL METABOLIC FRAMEWORK FOR ONE-CARBON UTILIZATION” (Mojia Biotech Pte. Ltd., priority 2021, published 2026) come the findings set out here.

B1: JGI20: HACS variant; GenBank PWB41796.1 (protein)
chain: MGQITGAQIVARALKQQGVEYMFGIVGIPVIPIAMFAQREGIKFYGFRNEQSASYAAAAVGYLTGRPGVCLGVSGPGMIHGVAGMANAWSNCWPMILIGGANDSYQNGQGAFQEAPQIEAARPFAKYCARPDSLARLPFYVEQAVRTSIYGRPGAVYLDLPGDIITGAMEEEDVHFPPRCPDAPRMMAPQESIDAAMAALKSAERPLVIVGKGAAYSRAENEVREFLETTQLPYLASPMGKGVMPDDHPLSIAPARSAALLGADVILLMGARLNWMMHFGHPPRFDPKVRVIQMDISAEEIGTNVPTEVALVGDAKAITTQLNASLKQQPWQYPSETTWWTGLRKKIDENGATVAEMMADESVPMSYYRVYREIRDLIPNDAIIQNEGASTMDIGRTLMPNFLPRHRLDAGSFGTMGVGLGQAIAAAAVHPDKHVFCIEGDSAFGFSGMEVETAARYGMKNITFIIINNNGIGGGPDTLDPTRVPPSAYTPNAHYEKMAEIYGGKGYFVTEPSQLRPALEEAIKADKPAIVNIMISATSQRKPQQFAWLTR
For B1, the “performance in 2HIB production” value in series [1] was “better performance than other HACLs”. Also, the DHB productivity entry in series [2] is on record as “decent DHB productivity”. In addition, the “glycolate productivity (glycolyl-CoA synthase activity) compared with RuHACL” value in series [3] is recorded as “exceeding the starting reference enzyme, RuHACL”.

B2: JGI15: HACS variant; GenBank HAK63664.1 (protein)
chain: MAKSEGKVNGATLMARALQQQGVQYMFGIVGFPVIPIAIAAQREGITYIGMRNEQSASYAAQAASYLTGRPQACLVVSGPGVVHALAGLANAQVNCWPMLLIGGASAIEQNGMGAFQEERQVLLASPLCKYAHQVERPERIPYYVEQAVRSALFGRPGAAYLDMPDDVILGEVEEAAVRPAATVGEPPRSLAPQENIEAALDALQSAKRPLVIVGKGMAWSRAENEVRQFIERTRLPFLATPMGKGVMPDDHPLSVGGARSHALQEADLVFLLGARFNWILHFGLPPRYSKDVRVIQLDLSAEEIGNNRQAEVALVGDGKAIVGQLNQALSSRQWFYPAETPWREAIAAKIAGNQAAVAPMIADNTSPMNYYRVYRDIAARLPRNAIIVGEGANTMDIGRTQMPNFEPRSRLDAGSYGTMGIGLGFAVAAAAVHPGRPVIAVQGDSAFGFSGMEFETAARYGMPIKVIILNNGGIGMGSPAPRDGQPGMPHALSHDARYERIAEAFGGAGFYVTDSAELGPALDAAMAFKGPAIVNIKIAATADRKPQQFNWHG
Consider B2, for which the “performance in 2HIB production” value in series [1] is “best performance”; in series [1] (listed as JG115), “better performance than other HACLs”. Moreover, the DHB productivity entry in series [2] is reported as “decent DHB productivity”. Also, the “glycolate productivity (glycolyl-CoA synthase activity) compared with RuHACL” value in series [3] is recorded as “exceeding the starting reference enzyme, RuHACL”. Besides, the “glycolate productivity relative to RuHACL” value in series [3] (5 mM formaldehyde sole carbon source, optimal inducer concentrations, 3 hours) is listed as 2.5 fold.
